A word on the Kd: it is the constant that tells how readily two partners part at equilibrium.

Consider one molecule from PMC10933344, “A lncRNA Dleu2-encoded peptide relieves autoimmunity by facilitating Smad3-mediated Treg induction” (EMBO Reports, 2024).

Where no end group is shown, it is not given here.

The test deals with T1, Smad3, recombinant (pET28a) (UniProt Q8BUN5 1-425).
T1 construct: the His tag is inferred from the vector only; also called free Smad3; source: bacterial overexpression (pET28a), purified
T1 sequence (Q8BUN5 whole entry): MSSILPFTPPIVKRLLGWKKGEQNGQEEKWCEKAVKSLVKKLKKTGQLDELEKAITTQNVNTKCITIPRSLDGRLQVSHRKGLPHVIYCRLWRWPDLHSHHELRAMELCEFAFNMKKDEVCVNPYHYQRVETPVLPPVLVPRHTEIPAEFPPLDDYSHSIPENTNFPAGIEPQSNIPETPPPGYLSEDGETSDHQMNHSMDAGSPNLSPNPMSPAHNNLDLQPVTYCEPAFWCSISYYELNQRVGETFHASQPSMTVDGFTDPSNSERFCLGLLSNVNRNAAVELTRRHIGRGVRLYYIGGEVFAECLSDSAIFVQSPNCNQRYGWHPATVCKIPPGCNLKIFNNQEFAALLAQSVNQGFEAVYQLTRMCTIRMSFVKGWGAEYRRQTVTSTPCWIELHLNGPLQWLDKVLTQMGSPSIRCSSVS
The test is described as follows: BLI; Octet RED96; 50 ug/ml Biotin-labeled Dleu2-17aa immobilised on streptavidin biosensors; 100 mM Tris-HCl pH 8.0, 20 mM MgCl2, 200 mM KCl, 0.1 mg/mL BSA; Smad3 at 1.67-53.3 uM, association 800 s, dissociation in DPBS (0.5% BSA) 180 s; RT. The note with it: both partners purified.

B1: Biotin-labeled Dleu2-17aa (peptide)
peptide: MLGRRARRRGRGRRRPA
modifications: also: biotin-labeled, position not given here
notes: Dleu2-17aa, 17-amino-acid micropeptide encoded by a short ORF in the first exon of the mouse lncRNA Dleu2; also called Biotin-Dleu2-17aa; biotinylated Dleu2-17aa
Turning to B1, the Kd was found to be 2430 nM.
